Sequences and labels used below:
B1: Camphor 5-monooxygenase, P00183 (parent)
chain: MTTETIQSNANLAPLPPHVPEHLVFDFDMYNPSNLSAGVQEAWAVLQESNVPDLVWTRCNGGHWIATRGQLIREAYEDYRHFSSECPFIPREAGEAYDFIPTSMDPPEQRQFRALANQVVGMPVVDKLENRIQELACSLIESLRPQGQCNFTEDYAEPFPIRIFMLLAGLPEEDIPHLKYLTDQMTRPDGSMTFAEAKEALYDYLIPIIEQRRQKPGTDAISIVANGQVNGRPITSDEAKRMCGLLLVGGLDTVVNFLSFSMEFLAKSPEHRQELIERPERIPAACEELLRRFSLVADGRILTSDYEFHGVQLKKGDQILLPQMLSGLDERENACPMHVDFSRQKVSHTTFGHGSHLCLGQHLARREIIVTLKEWLTRIPDFSIAPGAQIQHKSGIVSGVQALPLVWDPATTKAV

Variants of B1 are the subject of the series. The following applies: Pseudomonas putida; pH 7.4; Thermal; DSC; Tris 50 mM; KCl 100 mM; reversible: Yes; structure 2CPP; whole UniProt chain shown.
With MTTETIQSNANLAPLPPHVPEHLVFDFDMYNPSNLSAGVQEAWAVLQESNVPDLVWTRCNGGHWIATRGQLIREAYEDYRHFSSECPFIPREAGEAYDFIPVSMDPPEQRQFRALANQVVGMPVVDKLENRIQELACSLIESLRPQGQCNFTEDYAEPFPIRIFMLLAGLPEEDIPHLKYLTDQMTRPDGSMTFAEAKEALYDYLIPIIEQRRQKPGTDAISIVANGQVNGRPITSDEAKRMCGLLLVGGLDTVVNFLSFSMEFLAKSPEHRQELIERPERIPAACEELLRRFSLVADGRILTSDYEFHGVQLKKGDQILLPQMLSGLDERENACPMHVDFSRQKVSHTTFGHGSHLCLGQHLARREIIVTLKEWLTRIPDFSIAPGAQIQHKSGIVSGVQALPLVWDPATTKAV [T102V], the Tm is 63.5 °C and the “change of melting temperature, mutant - wild type (higher = more stable)” value was -1.8 °C.

For the origin of these results see FireProtDB (doi:10.1021/bi060848l).
